{"source": "patent US12630850B2", "about": "“Enzymatic break down of chlorogenic acid in sunflower-containing products” (Chapman University, priority 2022, dated 2026)", "key": {"[1]": {"test": "Circular dichroism thermal and pH stability", "assay_type": "physicochemical", "description": "Circular dichroism, dynamic light scattering and mass spectrometry. Circular dichroism (CD) spectra were taken on a Jasco J-1500 CD spectrophotometer. CGA esterase (0.2 mg mL^−1) was buffered in a solution of approximately 5 mM HEPES, pH 8.0. Spectra were recorded at 4° C. using the following settings: 100 nm min^−1 scan rate, 0.2 nm data pitch, 1.0 nm bandwidth, and 2 s integration time. Five acquisitions were averaged per experimental sample. […] The Tm was estimated by fitting a Boltzmann sigmoidal function to the denaturation curve. For CD spectra that were run at different pH, a concentrated CGA esterase stock solution was diluted to either 0.2 mg mL^−1 or 0.1 mg mL^−1 into solutions of 10 mM buffer at the pH indicated."}, "[2]": {"test": "CGA esterase activity in the sunflower meal supernatant and pellet (HPLC)", "assay_type": "biochemical", "conditions": "for Pellet mg CA/g meal / Pellet mg CGA/g meal / Supernatant mg CA/g meal / Supernatant mg CGA/g meal: enzyme present", "source_text": "Sunflower meal and sunflower protein treatment with chlorogenic acid esterase. Sunflower seeds were ground using a KitchenAid coffee grinder in two 30 s increments and sieved through a 500 μm filter to make SFM. Two defatting methods were used: cold press and hexane extraction. To make cold pressed SFM, ground seeds were pressed in a Carver Hydraulic Unit Model 3912 3852-0 five times to a pressure of 9,000-10,000 psi. For hexane extracted SFM, fat was removed from ground seeds using a Soxhlet apparatus in 250 mL hexane for 18 h and subsequently dried using a Fischer Scientific Isotemp Oven Model 516G at 45° C. for 3 h. Cold pressed, hexane extracted, and undefatted SFM were then sieved through a 500 μm filter.\nChlorogenic acid esterase activity in the sunflower meal supernatant and pellet. SFM (1 g) that was cold pressed, hexane extracted, or undefatted was buffered in 10 mL of 50 mM HEPES, pH 8.0. CGA esterase was added to a final concentration of 0.756 μM (0.02 mg mL^−1). Untreated samples received a solution of 50 mM HEPES, pH 8.0 instead of CGA esterase. Samples treated with CGA esterase were allowed to sit for 10 min and subsequently centrifuged at 10,000 rpm for 10 min. The supernatant was filtered through a 0.2 μm filter and loaded onto an HPLC while the pellet was lyophilized for 20 h. After lyophilization, 10 mL of 70% ethanol was then added to the dried pellet for 1 h to extract CGA. The pellet was subsequently centrifuged at 10,000 rpm for 10 min. The supernatant was then filtered through a 0.2 μm filter and loaded onto an HPLC.\nHPLC quantification of CGA and CA in sunflower meal and protein isolates. All solutions were diluted ten-fold in 0.1% formic acid in HPLC-grade water before analysis. Quantification of CGA and CA concentration was performed using an Agilent 1260 series HPLC instrument (Agilent Technologies) equipped with a quaternary pump, an automated sample injector, a diode array detector, and a 4.6 mm×150 mm Luna C18(2) column with a 5 μm particle size and 100 Å pore size (Phenomenex). The injection volume was 20 μL. To elute analytes, mobile phases composed of 0.1% formic acid in HPLC-grade water (A) and 0.1% formic acid in HPLC-grade acetonitrile (B) were used in a linear gradient. The gradient is as follows: 0 to 13% B in 1 min, up to 27% B at 8 min, up to 100% B at 8.5 min, isocratic at 100% B to 9.5 min, 100% B returned to 0% B at 9.6 min with 3 min post-time. The concentrations of CGA and CA were calculated from peak integration data based on 10-point standard curve that spanned a concentration range of 0 to 0.1 mg mL^−1."}, "[3]": {"test": "HPLC quantification of CGA in sunflower butter cookies", "assay_type": "biochemical", "conditions": "SFB cookies; both levels, 1.72×10^−1 and 1.72×10^−2 mg/g butter", "source_text": "Cookie formulations and baking conditions. The cookie dough formulation consisted of baking soda (2.2 g), salt (2.2 g), whole egg (46.8 g), maple syrup (76.3 g), vanilla extract (2.2 g), flour (145.8 g), and butter (87.5 g). CGA esterase treatments in SFF, utilized almond butter instead of SFB. The wet (sunflower or almond butter, maple syrup, eggs, and vanilla extract) and dry (flour, baking soda, and salt) ingredients were mixed separately and subsequently combined and mixed for 75 s with an electric hand mixer. The dough was rolled out and cut to the following dimensions: 6 mm thickness and 40 mm diameter. Cookies were baked for 7 min in a convection oven preheated to 149° C. (300° F.) and allowed to cool at room temperature for 10 min before further analysis.\nPreparation of sunflower butter cookies with chlorogenic acid/CGA esterase. […]\nHigh-performance liquid chromatography (HPLC) quantification of phenolic content in sunflower cookies. […] The extract was filtered through 0.20 μm syringe filters and analyzed with an Agilent 1260 Infinity II system (Agilent Technologies) equipped with a quaternary pump (G7111B), vial sampler (G7129A), and diode array detector (HS G7117C). […] CGA and caffeic acid concentrations were detected at 320 nm and quantified using a standard curve between 0.00-0.10 mg ml^−1 CGA (y=172287x, R^2=0.994) and caffeic acid (y=248557x, R^2=0.967)."}, "[4]": {"conditions": "Song & Baik, 2017; cited from earlier work"}}}
{"molecule": "CGA esterase: CGA esterase from L. helveticus (Genbank ID: WP_025283955.1, Uniprot ID: U6F2K7), expressed in Escherichia coli; the dimer is the active form (protein, listed as Lactobacillus helveticus) MSRITIERDGLTLVGDREEPFGEIYDMAIIMHGFAANRNTDLLRQIADDLRDENVASVRFDFNGHGESDGKFEDMTVCNEIADGKAILDYVRTDPHVRDIFLVGHSQGGVVASMLAGLYPDVVKKVVLLAPAAQLKDDALRSNTQGATYDPNHIPDWPLVGNKLGMKLGGFYLRTAQVLPIYEVSQCFTRPVSVIAGTNDQWDPKYAKKYDEVYENSELHMIPNADHRFSGGYKDMAADLTAQFLKPAF", "values": [{"measurement": "Tm", "setting": "[1]; CD signal at 222 nm, thermal denaturation", "result": 65, "unit": "°C"}, {"measurement": "pH range over which the protein is stable (CD spectra)", "setting": "[1]; room temperature (21° C.)", "result": "6.0-9.0 pH"}, {"measurement": "Conversion of CGA into caffeic and quinic acid", "setting": "[2]; SFM, in 10 min", "result": "~100", "unit": "%"}, {"measurement": "Pellet mg CA/g meal", "setting": "[2]; cold pressed SFM", "result": "0.81 ± 0.11", "unit": "mg CA/g meal"}, {"measurement": "Pellet mg CGA/g meal", "setting": "[2]; cold pressed SFM", "result": "0.02 ± 0.00", "unit": "mg CGA/g meal"}, {"measurement": "Supernatant mg CA/g meal", "setting": "[2]; cold pressed SFM", "result": "3.33 ± 0.15", "unit": "mg CA/g meal"}, {"measurement": "Supernatant mg CGA/g meal", "setting": "[2]; cold pressed SFM", "result": "0.00 ± 0.00", "unit": "mg CGA/g meal"}, {"measurement": "CGA cleavage", "setting": "[2]; defatted samples", "result": "> 99", "unit": "%"}, {"measurement": "Pellet mg CA/g meal", "setting": "[2]; hexane extracted SFM", "result": "1.55 ± 0.14", "unit": "mg CA/g meal"}, {"measurement": "Pellet mg CGA/g meal", "setting": "[2]; hexane extracted SFM", "result": "0.03 ± 0.00", "unit": "mg CGA/g meal"}, {"measurement": "Supernatant mg CA/g meal", "setting": "[2]; hexane extracted SFM", "result": "3.77 ± 0.10", "unit": "mg CA/g meal"}, {"measurement": "Supernatant mg CGA/g meal", "setting": "[2]; hexane extracted SFM", "result": "0.00 ± 0.00", "unit": "mg CGA/g meal"}, {"measurement": "Pellet mg CA/g meal", "setting": "[2]; undefatted SFM", "result": "0.34 ± 0.03", "unit": "mg CA/g meal"}, {"measurement": "Pellet mg CGA/g meal", "setting": "[2]; undefatted SFM", "result": "0.11 ± 0.01", "unit": "mg CGA/g meal"}, {"measurement": "Supernatant mg CA/g meal", "setting": "[2]; undefatted SFM", "result": "1.52 ± 0.08", "unit": "mg CA/g meal"}, {"measurement": "Supernatant mg CGA/g meal", "setting": "[2]; undefatted SFM", "result": "0.00 ± 0.00", "unit": "mg CGA/g meal"}, {"measurement": "CGA cleavage", "setting": "[2]; undefatted samples", "result": "ca. 96%"}, {"measurement": "Decrease of CGA concentration", "setting": "[3]", "result": "90-95%"}, {"measurement": "Km", "setting": "[4]", "result": 153, "unit": "µM"}, {"measurement": "Vmax", "setting": "[4]", "result": 0.5596, "unit": "mM/min/mg"}]}
